{"source": "patent US20190241648A1", "about": "(STATEN BIOTECHNOLOGY B V, published 2019)", "test_in_all_cases": "peptide microarray", "key": {"[1]": {"biological_target": "T1, ApoC3 peptide … D68R (human, cyclic constrained)", "T1 peptide": "DKFSEFWDLRPEV", "summary_of_the_method": "(§1)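 ApoC3 peptide microarrays incubated with antibody samples and then stained with goat anti-human IgG (Fc) DyLight680 plus anti-HA DyLight800 control antibody. Scanned at intensity 7/7 (red/green); a secondary-only prestain checked for background, and framing HA peptides served as quality control.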"}, "[2]": {"biological_target": "T2, ApoC3 peptide … D66L (human, not fully specified (bridges); also: cyclic constrained)", "T2 peptide": "DKFSEFWLLDPEV", "summary_of_the_method": "as §1"}, "[3]": {"biological_target": "T3, ApoC3 peptide … D59G (human, cyclic constrained)", "T3 peptide": "GKFSEFWDLDPEV", "summary_of_the_method": "as §1"}, "[4]": {"biological_target": "ApoC3 peptide … P69R (human, cyclic constrained)", "summary_of_the_method": "as §1"}, "[5]": {"biological_target": "T4, ApoC3 peptide … D66W (human, not fully specified (bridges); also: cyclic constrained)", "T4 peptide": "DKFSEFWWLDPEV", "summary_of_the_method": "as §1"}, "[6]": {"biological_target": "T5, ApoC3 peptide … K60A (human, not fully specified (bridges); also: cyclic constrained)", "T5 peptide": "DAFSEFWDLDPEV", "summary_of_the_method": "as §1"}, "[7]": {"biological_target": "T6, ApoC3 peptide … F64L (human, not fully specified (bridges); also: cyclic constrained)", "T6 peptide": "DKFSELWDLDPEV", "summary_of_the_method": "as §1"}, "[8]": {"biological_target": "T7, ApoC3 peptide … D59P (human, cyclic constrained)", "T7 peptide": "PKFSEFWDLDPEV", "summary_of_the_method": "as §1"}, "[9]": {"biological_target": "T8, ApoC3 peptide … D59Y (human, not fully specified (bridges); also: cyclic constrained)", "T8 peptide": "YKFSEFWDLDPEV", "summary_of_the_method": "as §1"}, "[10]": {"biological_target": "T9, ApoC3 peptide … K60H (human, not fully specified (bridges); also: cyclic constrained)", "T9 peptide": "DHFSEFWDLDPEV", "summary_of_the_method": "as §1"}, "[11]": {"biological_target": "T10, ApoC3 peptide … K60F (human, not fully specified (bridges); also: cyclic constrained)", "T10 peptide": "DFFSEFWDLDPEV", "summary_of_the_method": "as §1"}, "[12]": {"biological_target": "T11, ApoC3 peptide … W65P (human, not fully specified (bridges); also: cyclic constrained, ring type and places not given here)", "T11 peptide": "DKFSEFPDLDPEV", "summary_of_the_method": "as §1"}, "[13]": {"biological_target": "T12, ApoC3 peptide … W65K (human, not fully specified (bridges); also: cyclic constrained, ring type and places not given here)", "T12 peptide": "DKFSEFKDLDPEV", "summary_of_the_method": "as §1"}, "[14]": {"biological_target": "T13, ApoC3 peptide … L67N (human, not fully specified (bridges); also: cyclic constrained)", "T13 peptide": "DKFSEFWDNDPEV", "summary_of_the_method": "as §1"}, "[15]": {"biological_target": "T14, ApoC3 peptide … K60C (human, not fully specified (bridges); also: cyclic constrained)", "T14 peptide": "DCFSEFWDLDPEV", "summary_of_the_method": "as §1"}, "[16]": {"biological_target": "T15, ApoC3 peptide … K60I (human, not fully specified (bridges); also: cyclic constrained)", "T15 peptide": "DIFSEFWDLDPEV", "summary_of_the_method": "as §1"}, "[17]": {"biological_target": "T16, ApoC3 peptide … D66K (human, not fully specified (bridges); also: cyclic constrained)", "T16 peptide": "DKFSEFWKLDPEV", "summary_of_the_method": "as §1"}, "[18]": {"biological_target": "ApoC3 peptide … P69V (human, cyclic constrained)", "summary_of_the_method": "as §1"}, "[19]": {"biological_target": "T17, ApoC3 peptide … D68Q (human, cyclic constrained)", "T17 peptide": "DKFSEFWDLQPEV", "summary_of_the_method": "as §1"}, "[20]": {"biological_target": "T18, ApoC3 peptide … K60M (human, not fully specified (bridges); also: cyclic constrained)", "T18 peptide": "DMFSEFWDLDPEV", "summary_of_the_method": "as §1"}, "[21]": {"biological_target": "T19, ApoC3 peptide … F61E (human, cyclic constrained)", "T19 peptide": "DKESEFWDLDPEV", "summary_of_the_method": "as §1"}, "[22]": {"biological_target": "T20, ApoC3 peptide … K60E (human, not fully specified (bridges); also: cyclic constrained)", "T20 peptide": "DEFSEFWDLDPEV", "summary_of_the_method": "as §1"}, "[23]": {"biological_target": "T21, ApoC3 peptide … F61G (human, cyclic constrained)", "T21 peptide": "DKGSEFWDLDPEV", "summary_of_the_method": "as §1"}, "[24]": {"biological_target": "T22, ApoC3 peptide … D68A (human, not fully specified (bridges); also: cyclic constrained)", "T22 peptide": "DKFSEFWDLAPEV", "summary_of_the_method": "as §1"}, "[25]": {"biological_target": "T23, ApoC3 peptide … E70T (human, cyclic constrained)", "T23 peptide": "DKFSEFWDLDPTV", "summary_of_the_method": "as §1"}, "[26]": {"biological_target": "T24, ApoC3 peptide … L67G (human, not fully specified (bridges); also: cyclic constrained)", "T24 peptide": "DKFSEFWDGDPEV", "summary_of_the_method": "as §1"}, "[27]": {"biological_target": "ApoC3 peptide … W65D (human, cyclic constrained)", "summary_of_the_method": "as §1"}, "[28]": {"biological_target": "T25, ApoC3 peptide … D68F (human, cyclic constrained)", "T25 peptide": "DKFSEFWDLFPEV", "summary_of_the_method": "as §1"}, "[29]": {"biological_target": "ApoC3 peptide … E63H (human, cyclic constrained)", "summary_of_the_method": "as §1"}, "[30]": {"biological_target": "T26, ApoC3 peptide … D66M (human, not fully specified (bridges); also: cyclic constrained)", "T26 peptide": "DKFSEFWMLDPEV", "summary_of_the_method": "as §1"}, "[31]": {"biological_target": "ApoC3 peptide … E63Q (human, cyclic constrained)", "summary_of_the_method": "as §1"}, "[32]": {"biological_target": "T27, ApoC3 peptide … K60Q (human, not fully specified (bridges); also: cyclic constrained)", "T27 peptide": "DQFSEFWDLDPEV", "summary_of_the_method": "as §1"}, "[33]": {"biological_target": "ApoC3 peptide … S62H (human, cyclic constrained)", "summary_of_the_method": "as §1"}, "[34]": {"biological_target": "T28, ApoC3 peptide … D59H (human, cyclic constrained)", "T28 peptide": "HKFSEFWDLDPEV", "summary_of_the_method": "as §1"}, "[35]": {"biological_target": "T29, ApoC3 peptide … F64H (human, not fully specified (bridges); also: cyclic constrained)", "T29 peptide": "DKFSEHWDLDPEV", "summary_of_the_method": "as §1"}, "[36]": {"biological_target": "T30, ApoC3 peptide … D59W (human, not fully specified (bridges); also: cyclic constrained)", "T30 peptide": "WKFSEFWDLDPEV", "summary_of_the_method": "as §1"}}, "note": "Ends that are not written are not given here."}
{"binder": "anti-ApoC3 antibody 6A6 (antibody, V domains shown, it was detected with goat anti-human IgG (Fc); also called mAb 6A6; llama antibody 6A6) VH: EVQLVESGGGLVQPGGSLRLSCAASGFTFSSYAGRWVRQVPGKGLEWVSSINAGGGSTSYADSVKGRFTISRDNAKNTLYLQMNSLKPEDTAKYYCTQNSYRYWGQGTRVAVSS VL: DVVLTQTPGSLSVVPGESASISCKASQSLIHTDGKTYLYWLLQKPGQRPQLLIYQVSSHESGVPDRFTGSGSGTDFTLKISGVKAEDAGVYYCAQATYNPRTFGQGTKLEIK", "values": [{"measurement": "% of binding to wild-type peptide", "setting": "[1]", "value": 0.66, "unit": "%"}, {"measurement": "% of binding to wild-type peptide", "setting": "[2]", "value": 0, "unit": "%"}, {"measurement": "% of binding to wild-type peptide", "setting": "[3]", "value": 87.5, "unit": "%"}, {"measurement": "% of binding to wild-type peptide", "setting": "[4]", "value": 17.4, "unit": "%"}, {"measurement": "% of binding to wild-type peptide", "setting": "[5]", "value": 0, "unit": "%"}, {"measurement": "% of binding to wild-type peptide", "setting": "[6]", "value": 120, "unit": "%"}, {"measurement": "% of binding to wild-type peptide", "setting": "[7]", "value": 89.7, "unit": "%"}, {"measurement": "% of binding to wild-type peptide", "setting": "[8]", "value": 107, "unit": "%"}, {"measurement": "% of binding to wild-type peptide", "setting": "[9]", "value": 70.2, "unit": "%"}, {"measurement": "% of binding to wild-type peptide", "setting": "[10]", "value": 124, "unit": "%"}, {"measurement": "% of binding to wild-type peptide", "setting": "[11]", "value": 83.7, "unit": "%"}, {"measurement": "% of binding to wild-type peptide", "setting": "[12]", "value": 13.8, "unit": "%"}, {"measurement": "% of binding to wild-type peptide", "setting": "[13]", "value": 0, "unit": "%"}, {"measurement": "% of binding to wild-type peptide", "setting": "[14]", "value": 19.8, "unit": "%"}, {"measurement": "% of binding to wild-type peptide", "setting": "[15]", "value": 84, "unit": "%"}, {"measurement": "% of binding to wild-type peptide", "setting": "[16]", "value": 116, "unit": "%"}, {"measurement": "% of binding to wild-type peptide", "setting": "[17]", "value": 0.33, "unit": "%"}, {"measurement": "% of binding to wild-type peptide", "setting": "[18]", "value": 68.3, "unit": "%"}, {"measurement": "% of binding to wild-type peptide", "setting": "[19]", "value": 0, "unit": "%"}, {"measurement": "% of binding to wild-type peptide", "setting": "[20]", "value": 146, "unit": "%"}, {"measurement": "% of binding to wild-type peptide", "setting": "[21]", "value": 83.9, "unit": "%"}, {"measurement": "% of binding to wild-type peptide", "setting": "[22]", "value": 223, "unit": "%"}, {"measurement": "% of binding to wild-type peptide", "setting": "[23]", "value": 25.9, "unit": "%"}, {"measurement": "% of binding to wild-type peptide", "setting": "[24]", "value": 0, "unit": "%"}, {"measurement": "% of binding to wild-type peptide", "setting": "[25]", "value": 1.55, "unit": "%"}, {"measurement": "% of binding to wild-type peptide", "setting": "[26]", "value": 0.6, "unit": "%"}, {"measurement": "% of binding to wild-type peptide", "setting": "[27]", "value": 130, "unit": "%"}, {"measurement": "% of binding to wild-type peptide", "setting": "[28]", "value": 0, "unit": "%"}, {"measurement": "% of binding to wild-type peptide", "setting": "[29]", "value": 12.3, "unit": "%"}, {"measurement": "% of binding to wild-type peptide", "setting": "[30]", "value": 0.08, "unit": "%"}, {"measurement": "% of binding to wild-type peptide", "setting": "[31]", "value": 46.3, "unit": "%"}, {"measurement": "% of binding to wild-type peptide", "setting": "[32]", "value": 140, "unit": "%"}, {"measurement": "% of binding to wild-type peptide", "setting": "[33]", "value": 26.5, "unit": "%"}, {"measurement": "% of binding to wild-type peptide", "setting": "[34]", "value": 85.8, "unit": "%"}, {"measurement": "% of binding to wild-type peptide", "setting": "[35]", "value": 107, "unit": "%"}, {"measurement": "% of binding to wild-type peptide", "setting": "[36]", "value": 78.1, "unit": "%"}]}
